Biological target: polyketide synthase 16 (Pks16) (Dictyostelium discoideum (endogenous in AX2-214 cells)) (UniProt Q869W9)
Assay: cryo-EM structure; shotgun EM of endogenous assemblies in a heterogeneous pool of SEC and mixed-bed IEX fractions of D. discoideum lysate; 50 mM Hepes pH 7.4, 100 mM NaCl, 3 mM MgSO4, 0.1 mM EGTA, 1 mM DTT, 2% glycerol; 200 kV Glacios; proteins identified by MS of the same sample; AlphaFold 3 models fitted into the maps

- stoichiometry N: 2
Substance: polyketide synthase 16 (Pks16), Q869W9 1-2603

— PMC12828403
